Data reported in article PMC10786891, “Massively parallel profiling of RNA-targeting CRISPR-Cas13d”.
Where a chain is given by its changes, count along the chain named. Names and notes keep the numbering of the source.

T1: EsCas13d, nuclease-dead (Eubacterium siraeum, UniProt B0MS50, R295A;H300A;R849A;H854A)
T1 sequence: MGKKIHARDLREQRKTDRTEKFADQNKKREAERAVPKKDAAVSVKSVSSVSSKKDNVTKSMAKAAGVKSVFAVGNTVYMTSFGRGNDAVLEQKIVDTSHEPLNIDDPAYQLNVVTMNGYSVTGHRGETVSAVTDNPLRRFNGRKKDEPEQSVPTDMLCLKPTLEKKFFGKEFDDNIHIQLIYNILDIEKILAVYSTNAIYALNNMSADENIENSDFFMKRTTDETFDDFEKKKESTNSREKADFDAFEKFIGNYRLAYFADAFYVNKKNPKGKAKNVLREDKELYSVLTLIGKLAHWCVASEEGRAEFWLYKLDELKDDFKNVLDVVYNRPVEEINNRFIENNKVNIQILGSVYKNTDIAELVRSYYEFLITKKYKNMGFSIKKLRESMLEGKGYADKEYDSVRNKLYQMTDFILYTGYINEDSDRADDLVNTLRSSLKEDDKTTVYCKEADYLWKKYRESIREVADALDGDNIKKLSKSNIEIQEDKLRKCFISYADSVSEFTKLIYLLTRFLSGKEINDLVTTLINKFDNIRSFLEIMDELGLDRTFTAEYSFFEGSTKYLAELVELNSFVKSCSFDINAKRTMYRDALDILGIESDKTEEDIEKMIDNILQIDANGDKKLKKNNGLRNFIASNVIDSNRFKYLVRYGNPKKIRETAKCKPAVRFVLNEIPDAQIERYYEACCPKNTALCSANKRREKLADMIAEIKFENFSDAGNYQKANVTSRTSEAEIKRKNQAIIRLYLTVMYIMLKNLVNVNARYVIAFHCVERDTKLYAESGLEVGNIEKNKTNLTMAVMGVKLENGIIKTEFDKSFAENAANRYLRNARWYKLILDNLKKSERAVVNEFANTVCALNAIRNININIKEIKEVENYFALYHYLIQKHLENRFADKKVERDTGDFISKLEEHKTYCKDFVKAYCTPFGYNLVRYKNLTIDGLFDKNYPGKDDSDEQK

B1: target 1 insC 3' of 10,insU 3' of 4 (mixed)
RNA 1: CACCCGUGCAAAAAUGCAGGGGUCUAAAACUGAGCGGAUAACCUCUCUAUGG
RNA 2: GGGAAUGGAUCCACAUCUACGAAUUCGUACCAUAGAGAGGUUCAUCCGCUUCACCGAGAUCGGAAGAGCACACGU
B2: target 1 G5A,U11G (mixed)
RNA 1: B1 RNA 1
RNA 2: GGGAAUGGAUCCACAUCUACGAAUUCGUACCAUAGAGAGGGUAUCCACUCACCGAGAUCGGAAGAGCACACGU
B3: target 1 insU 3' of 9,insC 3' of 9 (mixed)
RNA 1: B1 RNA 1
RNA 2: B1 RNA 2 with C43A, A44U, U45C, C46U, G48C, C49G, U50C
B4: target 1 complement block 5-12 (mixed)
RNA 1: B1 RNA 1
RNA 2: B2 RNA 2 with G40C, G41A, U42A, A43U, U44A, C45G, C46G, A47C
B5: target 1 insU 3' of 17,insC 3' of 13 (mixed)
RNA 1: B1 RNA 1
RNA 2: GGGAAUGGAUCCACAUCUACGAAUUCGUACCAUAGUAGAGCGUUAUCCGCUCACCGAGAUCGGAAGAGCACACGU
B6: target 1 insC 3' of 22,insU 3' of 12 (mixed)
RNA 1: B1 RNA 1
RNA 2: B5 RNA 2 with A32C, U33A, A34U, G35A, U36G, C41G, G42U
B7: target 1 insA 3' of 8,insU 3' of 7 (mixed)
RNA 1: B1 RNA 1
RNA 2: B1 RNA 2 with C43A, A44U, U45A, C47U, G48C, C49G, U50C
B8: target 1 insU 3' of 18,insA 3' of 13 (mixed)
RNA 1: B1 RNA 1
RNA 2: B5 RNA 2 with G35U, U36G, C41A
B9: target 1 insG 3' of 18,insG 3' of 18 (mixed)
RNA 1: B1 RNA 1
RNA 2: B5 RNA 2 with U36G, A37G, G38A, A39G, G40A, C41G
B10: target 1 C4A,G15A (mixed)
RNA 1: B1 RNA 1
RNA 2: B2 RNA 2 with G37A, G41U, A47G, C48A
B11: target 1 U11G (mixed)
RNA 1: B1 RNA 1
RNA 2: B2 RNA 2 with A47G
B12: target 1 insC 3' of 20,insC 3' of 16 (mixed)
RNA 1: B1 RNA 1
RNA 2: B5 RNA 2 with U33C, A34U, G35A, U36G, G38C, A39G, G40A, C41G
B13: target 1 C4A,G13A (mixed)
RNA 1: B1 RNA 1
RNA 2: B2 RNA 2 with G39A, G41U, A47G, C48A
B14: target 1 insA 3' of 12,insU 3' of 1 (mixed)
RNA 1: B1 RNA 1
RNA 2: B1 RNA 2 with U41A, C43U, U51C, C52A, A53U
B15: target 1 insA 3' of 17,insC 3' of 16 (mixed)
RNA 1: B1 RNA 1
RNA 2: B5 RNA 2 with U36A, G38C, A39G, G40A, C41G
B16: target 1 insU 3' of 21,insA 3' of 17 (mixed)
RNA 1: B1 RNA 1
RNA 2: B5 RNA 2 with A32U, U33A, A34U, G35A, U36G, G38A, A39G, G40A, C41G
B17: target 1 G5U,C21U (mixed)
RNA 1: B1 RNA 1
RNA 2: B2 RNA 2 with C31U, G41U, A47U
B18: target 1 U10A,A14G (mixed)
RNA 1: B1 RNA 1
RNA 2: B2 RNA 2 with A38G, G41U, U42A, A47G
B19: target 1 insU 3' of 22,insA 3' of 7 (mixed)
RNA 1: B1 RNA 1
RNA 2: GGGAAUGGAUCCACAUCUACGAAUUCGUACUCAUAGAGAGGUUAUCACGCUCACCGAGAUCGGAAGAGCACACGU
B20: target 1 G12C,A16G (mixed)
RNA 1: B1 RNA 1
RNA 2: B2 RNA 2 with A36G, G40C, G41U, A47G
B21: target 1 C7G,G13U (mixed)
RNA 1: B1 RNA 1
RNA 2: B2 RNA 2 with G39U, G41U, C45G, A47G
B22: target 1 insG 3' of 22,insU 3' of 6 (mixed)
RNA 1: B1 RNA 1
RNA 2: B19 RNA 2 with U31G, A47C, C48U
B23: target 1 U10C,C21A (mixed)
RNA 1: B1 RNA 1
RNA 2: B2 RNA 2 with C31A, G41U, U42C, A47G
B24: target 1 insG 3' of 22,insC 3' of 9 (mixed)
RNA 1: B1 RNA 1
RNA 2: B19 RNA 2 with U31G, U45C, C46U, A47C
B25: target 1 U19G,A20U (mixed)
RNA 1: B1 RNA 1
RNA 2: B2 RNA 2 with A32U, U33G, G41U, A47G
B26: target 1 insA 3' of 15,insG 3' of 2 (mixed)
RNA 1: B1 RNA 1
RNA 2: B1 RNA 2 with G39A, U41G, C43U, U51C, C52G
B27: target 1 insU 3' of 22,insG 3' of 4 (mixed)
RNA 1: B1 RNA 1
RNA 2: B19 RNA 2 with A47C, C48G, G49C, C50G
B28: target 1 insA 3' of 8,insG 3' of 2 (mixed)
RNA 1: B1 RNA 1
RNA 2: B1 RNA 2 with C43A, A44U, U45A, U51C, C52G
B29: target 1 complement block 7-10 (mixed)
RNA 1: B1 RNA 1
RNA 2: B2 RNA 2 with G41U, U42A, A43U, U44A, C45G, A47G
B30: target 1 insU 3' of 18,insC 3' of 10 (mixed)
RNA 1: B1 RNA 1
RNA 2: B5 RNA 2 with G35U, U36G, C41G, G42U, U44C
B31: target 1 U3C,U10G (mixed)
RNA 1: B1 RNA 1
RNA 2: B2 RNA 2 with G41U, U42G, A47G, U49C
B32: target 1 insU 3' of 21,insU 3' of 7 (mixed)
RNA 1: B1 RNA 1
RNA 2: B19 RNA 2 with U31C, C32U, A47U
B33: target 1 U11G,A16G (mixed)
RNA 1: B1 RNA 1
RNA 2: B2 RNA 2 with A36G, A47G
B34: target 1 insU 3' of 14,insC 3' of 14 (mixed)
RNA 1: B1 RNA 1
RNA 2: B5 RNA 2 with U36A, A37G, G38A, A39U, G40C, C41G
B35: target 1 insA 3' of 19,insC 3' of 13 (mixed)
RNA 1: B1 RNA 1
RNA 2: B5 RNA 2 with G35A, U36G

These binders were tested against T1, EsCas13d, nuclease-dead (assay: crRNA (strand 1, pre-loaded); Mg2+; 40 mM Tris-HCl pH 7.5, 150 mM NaCl, 6 mM MgCl2, 1 mM DTT, 0.1% Tween-20, 0.2 mg/ml BSA; 25 C; 10 min per concentration, then washed). Conditions: tags: His6-TwinStrep-SUMO cleaved; N-terminal SNAP kept (SNAP-Surface 488); label: 3' end held by stalled T7 RNA polymerase.
B1 showed a Kd of 12.7 ± 1.1 nM.
For B2, the Kd was 51 ± 5 nM.
In the case of B3, the Kd is reported as 21.5 ± 1.6 nM.
B4 gave a Kd of 15.8 ± 1.5 nM.
B5 gave a Kd of 44 ± 9 nM.
B6 showed a Kd of 16.8 ± 1.2 nM.
For B7, the Kd was 12.8 ± 0.5 nM.
Work on B8 yielded a Kd of 22.6 ± 2.4 nM.
Binder B9 has a Kd of 48 ± 4 nM.
B10 was tested, and the Kd was 20.9 ± 1.8 nM.
B11 showed a Kd of 22.4 ± 1.2 nM.
Work on B12 yielded a Kd of 16 ± 3 nM.
In the case of B13, the Kd is reported as 14 ± 4 nM.
In the case of B14, the Kd is reported as 37 ± 10 nM.
For B15, the Kd was 11.6 ± 0.7 nM.
In the case of B16, the Kd is reported as roughly 100 nM.
With B17 the Kd was 5.96 ± 0.31 nM.
For B18, the Kd was 12.3 ± 0.5 nM.
Binder B19 has a Kd of 21.9 ± 1.3 nM.
B20 was tested, and the Kd was 75 ± 10 nM.
For B21, the Kd was 54 ± 13 nM.
For B22, the Kd was 49 ± 7 nM.
Work on B23 yielded a Kd of 60 ± 8 nM.
In the case of B24, the Kd is reported as 26.3 ± 1.6 nM.
In the case of B25, the Kd is reported as 96 ± 35 nM.
B26 showed a Kd of 6.7 ± 0.6 nM.
In the case of B27, the Kd is reported as 22.3 ± 1.5 nM.
Binder B28 has a Kd of 16.7 ± 0.8 nM.
Work on B29 yielded a Kd of 11.7 ± 0.7 nM.
Work on B30 yielded a Kd of 65 ± 24 nM.
Work on B31 yielded a Kd of 26 ± 2.7 nM.
B32 showed a Kd of 54 ± 4 nM.
In the case of B33, the Kd is reported as 53 ± 6 nM.
Binder B34 has a Kd of 37 ± 4 nM.
With B35 the Kd was 35.3 ± 3.3 nM.
